B1: HIT01-K21Q-R218E (cleavage-resistant variant of HIT01) (designed binder)
chain 1: DYSEDQEVKAPQLDHPDPGTERVAELLRCTKSVWRIPEQYLVVLREGTRDSHVQRTVSTLRAQAARRGHAIHIMHTYSGVFHGFLIKMSSEVLPMALKLPHVAYIEEDSSIFAQ
chain 2: SIPWNLQRIIQTKHETGKYTPPNDGAQVTVFLLDTSVQTDHREIEGKVMVTDFNSMPKEDGTRFHESASKCESHGTHIAGVLSGRDAGVARGVSVNTVRVLNCQGRGTVSGALAGLEYIRASLQAQPVSPVIILLPFVGGFSRTLNTACREMVHSGAVLIAAAGNYQDDACMYSPASEPEVITVGASNAADRPLSSGTTGTNLGRCVDVFAPGEDIISASGDCSTCFVSMSGTSQSAAHAAGIAAVLLNAYPSASPAEVLQLLRYHAVQRVINPDSLPPEHYLTTPDMVAALPTSAATGEKLLCRSVWSKRSGVGSFDTAVARCRHGEEMFSCSSYSPNGVHAGERIEIRDGQKVCEAHHGIGGQGVYAVARCCTGSRVKCHASASLHVGIDAECPSQEFQLTGCSSHYIRSQDVAQPSWPLHSNRKACPAGEGGTSHAFCCHAPNLECHLIEHHQSEFTKQVEVSCEDSWTLTGCNAVSHGSVTHAAYTRGNTCVIQMFGGDKGAAAIAICCRYRPLDQQSNNNHEQNT

Columns and labels:
Test in all cases: BLI
[1] = target: B1
[2] = target: human proprotein convertase subtilisin/kexin type 9 (PCSK9) (human, UniProt Q8NBP7 153-692)
J16 = target: J16

Row | Kd [1] | Kd [2] | Kd (J16) | Binder
1 | 1.83 nM |  |  | 1D05 Fab (Fab, V domains shown) VH: QVQLVQSGAEVKKPGSSVKVSCKASGGTFNSHAISWVRQAPGQGLEWMGGINPILGIANYAQKFQGRVTITADESTSTAYMELSSLRSEDTAVYYCARHYEIQIGRYGMNVYYLMYRFASWGQGTLVTVSS VL: DIQMTQSPSSLSASVGDRVTITCRASQGIRSALNWYQQKPGKAPKLLIYNGSTLQSGVPSRFSGSGSGTDFTLTISSLQPEDFAVYYCQQFDGDPTFGQGTKVEIK
2 | 0.19 nM | 0.17 nM |  | AMG145 (evolocumab) IgG (antibody, V domains shown) VH: EVQLVQSGAEVKKPGASVKVSCKASGYTLTSYGISWVRQAPGQGLEWMGWVSFYNGNTNYAQKLQGRGTMTTDPSTSTAYMELRSLRSDDTAVYYCARGYGMDVWGQGTTVTVSS VL: ESALTQPASVSGSPGQSITISCTGTSSDVGGYNSVSWYQQHPGKAPKLMIYEVSNRPSGVSNRFSGSKSGNTASLTISGLQAEDEADYYCNSYTSTSMVFGGGTKLTVL
3 |  |  | 0.62 nM | B1

Source: article PMC11305080 (2024)
